Data on 6 molecules can be found in US20240400715A1 (VIBRANT PHARMA, published 2024).

Test [1] deals with T1, human CD3ε/δ (ACRO systems, CDD-H52W1) (human, UniProt P07766 23-126; P04234 22-105).
T1 construct: bought recombinant heterodimer; also called human CD3 epsilon/delta; Human CD3ε/CD3δ
Description: serum-stability ELISA, Day 0 (reference). (In an ELISA, binding on a coated surface is turned into a signal by an enzyme label.)
Description: (§1) The samples to be tested were centrifuged at 4° C. at 12000 rpm for 30 minutes to remove the precipitate. 200 μl of each sample to be tested (0.5 mg/ml) was collected in a 1.5 ml Eppendorf tube. An equal volume of human serum (GEMINI, H2OYOOK) was added, mixed thoroughly, and the mixture was incubated in a 37° C. constant temperature CO₂ incubator. For a total of 10 days, 40 μl samples was aspirated every day and stored at −20° C.
(§2) Enzyme-linked immunosorbent assay (ELISA) was used to test the bispecific antibodies' binding to human CEA and human CD3 epsilon/delta antigen. The steps are as follows: the antigen human CD3ε/δ (ACRO systems, CDD-H52W1) and the recombinant tumor antigen human CEA (CEACAM-5/CD66e, ACRO systems, CE5-H5226) were diluted to 1 μg/ml with PBS, and then added to the 96-well plate at 100 μl per well. The wells were coated overnight at 4° C. After washing 3 times with 0.05% PBST, 200 μl 5% skimmed milk powder was added to each well and incubated at 37° C. for 2 h. After washing 3 times with 0.05% PBST, 100 μl primary antibody sample (10 μg/ml) was added to each well, and incubated at 37° C. for 2 h. After washing 3 times with 0.05% PBST, 100 μl (1:6000) diluted secondary antibody goat anti-human Fc-HRP (sigma, A2170) was added to each well, incubated at room temperature for 1 h. After washing 8 times with 0.05% PBST, 50 μl TMB color developing solution was added to each well, and incubated at room temperature for 10-15 min. 50 μl 1 mM HCl was added to each well to stop the color development. 450 nm Absorbance (OD) was read.
(§3) The binding of antibodies to antigen was calculated according to the following formula: Binding (%)=[(ODdayn−ODb)/(ODday0−ODb)]×100%. ODdayn: experimental well (the protein was stored in the serum for n days); ODday0: control well (the protein was not stored in the serum); ODb: blank well (no primary antibody added).

Test [2] concerns the target T1, human CD3ε/δ (ACRO systems, CDD-H52W1). Description: serum-stability ELISA, Day 10 vs Day 0.
Description: as §1, §2, §3
For test [3] the target is unchanged. Briefly: serum-stability ELISA, Day 9 vs Day 0.
Description: as §1, §2, §3
Test [4] shares this target. Description: serum-stability ELISA, Day 1 vs Day 0.
Test [5] shares this target. Description: serum-stability ELISA, Day 5 vs Day 0.
Test [6] has the same target. Description: serum-stability ELISA, Day 7 vs Day 0.
Description: as §1, §2, §3
Test [7] has the same target. Description: serum-stability ELISA, Day 2 vs Day 0.
Test [8] has the same target. Description: serum-stability ELISA, Day 6 vs Day 0.
Description: as §1, §2, §3

Positions count from the first letter of the chain named.

B1: 102 (Fab-Knob-CEA+Hole) (bispecific antibody, human IgG4 S228P, kappa, F234A L235A)
heavy: EVKLLESGGGLVQPKGSLKLSCAASGFTFNTYAMNWVRQAPGKGLEWVARIRSKYNNYATYYADSVKDRFTISRDDSQSILYLQMNNLKTEDTAMYYCVRHGNFGNSYVSWFAYWGQGTLVTVSSASTKGPSVFPLAPCSRSTSESTAALGCLVKDYFPEPVTVSWNSGALTSGVHTFPAVLQSSGLYSLSSVVTVPSSSLGTKTYTCNVDHKPSNTKVDKRVESKYGPPCPPCPAPEAAGGPSVFLFPPKPKDTLMISRTPEVTCVVVDVSQEDPEVQFNWYVDGVEVHNAKTKPREEQFNSTYRVVSVLTVLHQDWLNGKEYKCKVSNKGLPSSIEKTISKAKGQPREPQVYTLPPCQEEMTKNQVSLWCLVKGFYPSDIAVEWESNGQPENNYKTTPPVLDSDGSFFLYSRLTVDKSRWQEGNVFSCSVMHEALHNHYTQKSLSLSLGGGGSGGGGSEVQLVESGGGFVQAGESLTLSCTSSTLTFTPYRMAWYRQAPGKQRDLVADISSGDGRTTNYADFAKGRFTISRDNIKNTVFLRMTNLKPEDTAVYYCNTFVSFVGIARSWGQGTQVTVSS
chain: ESKYGPPCPPCPAPEAAGGPSVFLFPPKPKDTLMISRTPEVTCVVVDVSQEDPEVQFNWYVDGVEVHNAKTKPREEQFNSTYRVVSVLTVLHQDWLNGKEYKCKVSNKGLPSSIEKTISKAKGQPREPQVCTLPPSQEEMTKNQVSLSCAVKGFYPSDIAVEWESNGQPENNYKTTPPVLDSDGSFFLVSRLTVDKSRWQEGNVFSCSVMHEALHNRFTQKSLSLSL
light: QAVVTQESALTTSPGETVTLTCRSSTGAVTTSNYANWVQEKPDHLFTGLIGGTNKRAPGVPARFSGSLIGDKAALTITGAQTEDEAIYFCALWYSNLWVFGGGTKVEIKRTVAAPSVFIFPPSDEQLKSGTASVVCLLNNFYPREAKVQWKVDNALQSGNSQESVTEQDSKDSTYSLSSTLTLSKADYEKHKVYACEVTHQGLSSPVTKSFNRGEC
notes: TA1 Fab, C17 VHH, IgG4 Fc KIH
With B1, the Binding % in test [1] amounted to 100%; in test [2], 102%; in test [3] it was 100%; in test [4], 106%; in test [5] it was 108%; in test [6] it was 105%. The Binding % in test [7] was 111%; in test [8], 110%.

B2: 104 (CEA-Knob+Fab-Hole) (bispecific antibody, human IgG4 S228P, kappa, F234A L235A)
chain: EVQLVESGGGFVQAGESLTLSCTSSTLTFTPYRMAWYRQAPGKQRDLVADISSGDGRTTNYADFAKGRFTISRDNIKNTVFLRMTNLKPEDTAVYYCNTFVSFVGIARSWGQGTQVTVSSESKYGPPCPPCPAPEAAGGPSVFLFPPKPKDTLMISRTPEVTCVVVDVSQEDPEVQFNWYVDGVEVHNAKTKPREEQFNSTYRVVSVLTVLHQDWLNGKEYKCKVSNKGLPSSIEKTISKAKGQPREPQVYTLPPCQEEMTKNQVSLWCLVKGFYPSDIAVEWESNGQPENNYKTTPPVLDSDGSFFLYSRLTVDKSRWQEGNVFSCSVMHEALHNHYTQKSLSLSL
heavy: EVKLLESGGGLVQPKGSLKLSCAASGFTFNTYAMNWVRQAPGKGLEWVARIRSKYNNYATYYADSVKDRFTISRDDSQSILYLQMNNLKTEDTAMYYCVRHGNFGNSYVSWFAYWGQGTLVTVSSASTKGPSVFPLAPCSRSTSESTAALGCLVKDYFPEPVTVSWNSGALTSGVHTFPAVLQSSGLYSLSSVVTVPSSSLGTKTYTCNVDHKPSNTKVDKRVESKYGPPCPPCPAPEAAGGPSVFLFPPKPKDTLMISRTPEVTCVVVDVSQEDPEVQFNWYVDGVEVHNAKTKPREEQFNSTYRVVSVLTVLHQDWLNGKEYKCKVSNKGLPSSIEKTISKAKGQPREPQVCTLPPSQEEMTKNQVSLSCAVKGFYPSDIAVEWESNGQPENNYKTTPPVLDSDGSFFLVSRLTVDKSRWQEGNVFSCSVMHEALHNRFTQKSLSLSL
light: B1 light
notes: TA1 Fab, C17 VHH, IgG4 Fc KIH
For the molecule B2, the Binding % in test [1] was 100%; in test [2], 107%; in test [3] it was 108%; in test [4], 107%; in test [5] it was 104%; in test [6], 103%. Moreover, the Binding % was 110% in test [7] and 104% in test [8].

B3: 106 (Knob+Fab-Hole-CEA) (bispecific antibody, human IgG4 S228P, kappa, F234A L235A)
chain: B1 chain with C131Y, S136C, S148W, A150L, V189Y, R217H, F218Y
heavy: B1 heavy with Y354C, C359S, W371S, L373A, Y412V, H440R, Y441F
light: B1 light
notes: TA1 Fab, C17 VHH, IgG4 Fc KIH
On to B3, for which the Binding % in test [1] came out at 100%; in test [2] it was 106%; in test [3], 112%; in test [4] it was 111%; in test [5] it was 116%; in test [6] it was 118%. For the same molecule, the Binding % in test [7] stood at 115%; in test [8], 122%.

B4: 105 (Knob-CEA+Fab-Hole) (bispecific antibody, human IgG4 S228P, kappa, F234A L235A)
chain: ESKYGPPCPPCPAPEAAGGPSVFLFPPKPKDTLMISRTPEVTCVVVDVSQEDPEVQFNWYVDGVEVHNAKTKPREEQFNSTYRVVSVLTVLHQDWLNGKEYKCKVSNKGLPSSIEKTISKAKGQPREPQVYTLPPCQEEMTKNQVSLWCLVKGFYPSDIAVEWESNGQPENNYKTTPPVLDSDGSFFLYSRLTVDKSRWQEGNVFSCSVMHEALHNHYTQKSLSLSLGGGGSGGGGSEVQLVESGGGFVQAGESLTLSCTSSTLTFTPYRMAWYRQAPGKQRDLVADISSGDGRTTNYADFAKGRFTISRDNIKNTVFLRMTNLKPEDTAVYYCNTFVSFVGIARSWGQGTQVTVSS
heavy: B2 heavy
light: B1 light
notes: TA1 Fab, C17 VHH, IgG4 Fc KIH
In the case of B4, the Binding % amounted to 100% in test [1]; 99.2% in test [2]; 105% in test [3]; 103% in test [4]; 107% in test [5]; 101% in test [6]. Further, the results for the Binding % in test [7] and in test [8] were 106% and 104%, respectively.

B5: 103 (Fab-Knob+Hole-CEA) (bispecific antibody, human IgG4 S228P, kappa, F234A L235A)
heavy: B2 heavy with C354Y, S359C, S371W, A373L, V412Y, R440H, F441Y
chain: B4 chain with Y131C, C136S, W148S, L150A, Y189V, H217R, Y218F
light: B1 light
notes: TA1 Fab, C17 VHH, IgG4 Fc KIH
Take B5: the Binding % in test [1] was 100%; in test [2], 100%; in test [3] it was 103%; in test [4], 101%; in test [5], 105%; in test [6], 107%. Moreover, the figures for the Binding % in test [7] and in test [8] were 106% and 105%, respectively.

B6: 107 (CEA-Knob-Fab-+Hole) (bispecific antibody, human IgG4 S228P, kappa, F234A L235A)
heavy: EVQLVESGGGFVQAGESLTLSCTSSTLTFTPYRMAWYRQAPGKQRDLVADISSGDGRTTNYADFAKGRFTISRDNIKNTVFLRMTNLKPEDTAVYYCNTFVSFVGIARSWGQGTQVTVSSESKYGPPCPPCPAPEAAGGPSVFLFPPKPKDTLMISRTPEVTCVVVDVSQEDPEVQFNWYVDGVEVHNAKTKPREEQFNSTYRVVSVLTVLHQDWLNGKEYKCKVSNKGLPSSIEKTISKAKGQPREPQVYTLPPCQEEMTKNQVSLWCLVKGFYPSDIAVEWESNGQPENNYKTTPPVLDSDGSFFLYSRLTVDKSRWQEGNVFSCSVMHEALHNHYTQKSLSLSLGGGGSGGGGEVKLLESGGGLVQPKGSLKLSCAASGFTFNTYAMNWVRQAPGKGLEWVARIRSKYNNYATYYADSVKDRFTISRDDSQSILYLQMNNLKTEDTAMYYCVRHGNFGNSYVSWFAYWGQGTLVTVSSASTKGPSVFPLAPCSRSTSESTAALGCLVKDYFPEPVTVSWNSGALTSGVHTFPAVLQSSGLYSLSSVVTVPSSSLGTKTYTCNVDHKPSNTKVDKRV
chain: B1 chain
light: B1 light
notes: TA1 Fab, C17 VHH, IgG4 Fc KIH
B6: the Binding % in test [1] turned out to be 100%; in test [2] it was 102%; in test [3], 118%; in test [4], 118%; in test [5], 122%; in test [6], 125%. Besides, the Binding % in test [7] and in test [8] was 123% each time.
